Measurements taken from the supplement of paper PMC10567573.

B1: FUT8 (parent)
chain: NWRYATGGWETVFRPVSETCTDRS
B2: CPXM2 (parent)
chain: EILGCPLPDPNNYYHRRNEMTTTD

Variants of: B1
Assay: protein stability index of a GFP-peptide fusion (GPS, HEK-293T) (PSI 1-6); higher = more stable
Details: c terminus: a fixed tail appended
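Further: lentivirally expressed fusions sorted by FACS into six bins by GFP to DsRed ratio, PSI derived from sequencing read proportions per bin multiplied by bin number.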

Protein stability index: each site, then its substitutions
E18: R 1.8 | T 2.15 | V 2.76 | W 2.45 | Y 2.18
T19: C 1.42 | E 2.86 | F 1.85 | G 2.72 | I 2.22 | K 1.84 | L 2.3 | M 1.21 | N 2.09 | P 1.83 | Q 2.37 | R 2.24 | S 2.5 | Y 3.12
C20: A 3.39 | D 2.3 | F 1.84 | H 4.01 | I 1.63 | L 1.44 | M 2.33 | N 2.6 | P 1.81 | Q 1.84 | S 1.75 | T 1.04 | V 1.88 | W 3.63 | Y 2.24
T21: A 1.39 | D 1.34 | E 1.55 | F 2.31 | G 1.47 | H 1.56 | K 2.49 | L 2.43 | M 3.38 | P 1.26 | R 2.8 | V 1.9 | Y 1.84
D22: C 1.93 | E 2.33 | H 1.45 | I 2.98 | K 2.12 | L 1.7 | M 1.9 | N 1.24 | P 1.48 | Q 1.69 | R 1.84 | S 2.43 | T 3.48 | V 1.54 | W 1.25 | Y 2.07
R23: A 2.36 | D 2.41 | E 1.75 | F 1.77 | G 1.6 | H 3.12 | I 1.21 | K 1.92 | L 3.42 | M 2.34 | N 1.44 | P 2.08 | S 1.56 | T 2.02 | V 2.89 | W 1.91 | Y 2.49
S24: A 1.69 | D 1.76 | F 1.88 | H 1.64 | I 1.71 | K 2.6 | L 2.3 | M 1.96 | N 2.44 | P 2.33 | Q 2.72 | R 1.47 | T 2.03 | V 2.67 | Y 1.86

Variants of: B2
Assay: as above
Details: c terminus: a fixed tail appended

Protein stability index, by site and new letter:
E1: A 3.2 | C 2.83 | D 3.8 | F 1.83 | G 3.58 | H 3.16 | I 2.52 | K 3.18 | L 2.63 | M 2.23 | N 3.42 | P 4.63 | Q 3.02 | R 3.59 | S 3.54 | T 3.69 | V 2.4 | W 1.86 | Y 2.29
I2: A 4.51 | C 3.98 | D 4.86 | E 4.91 | F 3.75 | G 5.13 | H 4.64 | K 4.54 | L 3.34 | M 4.04 | N 4.55 | P 4.87 | Q 4.76 | R 4.28 | S 4.51 | T 4.32 | V 3.79 | W 3.82 | Y 3.77
L3: A 4.09 | C 4.07 | D 4.32 | E 4.39 | F 3.38 | G 4.45 | H 4.16 | I 3.58 | K 4.48 | M 4.05 | N 3.78 | P 4.7 | Q 4.13 | R 4.3 | S 4.41 | T 3.99 | V 3.85 | W 3.84 | Y 3.7
G4: A 3.35 | C 3.47 | D 3.96 | E 4.09 | F 2.69 | H 3.71 | I 2.72 | K 3.39 | L 2.69 | M 3.15 | N 2.93 | P 4.03 | Q 3.5 | R 3.73 | S 3.57
